Laboratory results as given in PMC4336573 (2015).

Molecular target: T1, Histone H3 K27me3 peptide H3K27me3 peptide (Homo sapiens, UniProt P68431, K27 trimethylation (H3))
T1 chain: QLATKAARKSAPATGGV
Experiment: fluorescence anisotropy

Kd: 27.7 µM
B1: CBX7 chromodomain (protein)
chain: FAVESIRKKRVRKGKVEYLVKWKGWPPKYSTWEPEEHILDPRLVMAYEEKEERDRASGY
